Experimental data reported in the Human Domainome abundance scans (Beltran et al. 2025).
± gives the uncertainty stated by the source.

B1: Homeobox protein cut-like 1, residues 548 to 629; numbered along this chain, P39880 (parent)
chain: GEEMDTAEIARQVKEQLIKHNIGQRIFGHYVLGLSQGSVSEILARPKPWNKLTVRGKEPFHKMKQFLSDEQNILALRSIQGR

Variants of: B1
Assay: abundance fitness (aPCA) (normalised: wild type 0, dead -1); higher = more abundant; growth selection in yeast, the domain comes from the species named
Settings: Homo sapiens

GEEMDTAEIARQVKEQLIKHNIGQRIFGHYVLGLSQGSVSEILARPKPWDKLTVRGKEPFHKMKQFLSDEQNILALRSIQGR [N50D] and GEEMDTAEIARQVKEQLIKHNIGQRIFGHYVLGLSQGSVSEILARPKPWSKLTVRGKEPFHKMKQFLSDEQNILALRSIQGR [N50S] are within error of each other in abundance fitness: -0.103 ± 0.12 for the first, 0.073 ± 0.07 for the second.

GEEMDTAEIARQVKEQLIKHNIGQRIFGHYVLGLSQGSVSEILARPKPWAKLTVRGKEPFHKMKQFLSDEQNILALRSIQGR [N50A] and GEEMDTAEIARQVKEQLIKHNIGQRIFGHYVLGLSQGSVSEILARPKPWYKLTVRGKEPFHKMKQFLSDEQNILALRSIQGR [N50Y] are within error of each other in abundance fitness: -0.062 ± 0.072 for the first, -0.165 ± 0.13 for the second.

GEEMDTAEIARQVKEQLIKHNIGQRIFGHYVLGLSQGSVSEILARPKPWFKLTVRGKEPFHKMKQFLSDEQNILALRSIQGR [N50F] and GEEMDTAEIARQVKEQLIKHNIGQRIFGHYVLGLSQGSVSEILARPKPWEKLTVRGKEPFHKMKQFLSDEQNILALRSIQGR [N50E] are within error of each other in abundance fitness: -0.265 ± 0.13 for the first, -0.071 ± 0.2 for the second.

GEEMDTAEIARQVKEQLIKHNIGQRIFGHYVLGLSQGSVSEILARPKPWHKLTVRGKEPFHKMKQFLSDEQNILALRSIQGR [N50H] and GEEMDTAEIARQVKEQLIKHNIGQRIFGHYVLGLSQGSVSEILARPKPWMKLTVRGKEPFHKMKQFLSDEQNILALRSIQGR [N50M] are within error of each other in abundance fitness: -0.074 ± 0.098 for the first, -0.23 ± 0.11 for the second.

GEEMDTAEIARQVKEQLIKHNIGQRIFGHYVLGLSQGSVSEILARPKPWWKLTVRGKEPFHKMKQFLSDEQNILALRSIQGR [N50W] and GEEMDTAEIARQVKEQLIKHNIGQRIFGHYVLGLSQGSVSEILARPKPWKKLTVRGKEPFHKMKQFLSDEQNILALRSIQGR [N50K] are within error of each other in abundance fitness: -0.151 ± 0.085 for the first, -0.093 ± 0.076 for the second.

Compared with GEEMDTAEIARQVKEQLIKHNIGQRIFGHYVLGLSQGSVSEILARPKPWTKLTVRGKEPFHKMKQFLSDEQNILALRSIQGR [N50T], GEEMDTAEIARQVKEQLIKHNIGQRIFGHYVLGLSQGSVSEILARPKPWLKLTVRGKEPFHKMKQFLSDEQNILALRSIQGR [N50L] is lower in abundance fitness: -0.16 ± 0.067 for the first, -0.424 ± 0.092 for the second.

GEEMDTAEIARQVKEQLIKHNIGQRIFGHYVLGLSQGSVSEILARPKPWQKLTVRGKEPFHKMKQFLSDEQNILALRSIQGR [N50Q] and GEEMDTAEIARQVKEQLIKHNIGQRIFGHYVLGLSQGSVSEILARPKPWPKLTVRGKEPFHKMKQFLSDEQNILALRSIQGR [N50P] are within error of each other in abundance fitness: -0.057 ± 0.13 for the first, -0.003 ± 0.14 for the second.

Going from GEEMDTAEIARQVKEQLIKHNIGQRIFGHYVLGLSQGSVSEILARPKPWRKLTVRGKEPFHKMKQFLSDEQNILALRSIQGR [N50R] to GEEMDTAEIARQVKEQLIKHNIGQRIFGHYVLGLSQGSVSEILARPKPWVKLTVRGKEPFHKMKQFLSDEQNILALRSIQGR [N50V], the abundance fitness falls from -0.04 ± 0.066 to -0.309 ± 0.088.

GEEMDTAEIARQVKEQLIKHNIGQRIFGHYVLGLSQGSVSEILARPKPWCKLTVRGKEPFHKMKQFLSDEQNILALRSIQGR [N50C] and GEEMDTAEIARQVKEQLIKHNIGQRIFGHYVLGLSQGSVSEILARPKPWGKLTVRGKEPFHKMKQFLSDEQNILALRSIQGR [N50G] are within error of each other in abundance fitness: 0.064 ± 0.14 for the first, -0.129 ± 0.084 for the second.

Going from GEEMDTAEIARQVKEQLIKHNIGQRIFGHYVLGLSQGSVSEILARPKPWNKATVRGKEPFHKMKQFLSDEQNILALRSIQGR [L52A] to GEEMDTAEIARQVKEQLIKHNIGQRIFGHYVLGLSQGSVSEILARPKPWNKCTVRGKEPFHKMKQFLSDEQNILALRSIQGR [L52C], the abundance fitness rises from -1.04 ± 0.12 to -0.484 ± 0.065.

GEEMDTAEIARQVKEQLIKHNIGQRIFGHYVLGLSQGSVSEILARPKPWNKDTVRGKEPFHKMKQFLSDEQNILALRSIQGR [L52D] and GEEMDTAEIARQVKEQLIKHNIGQRIFGHYVLGLSQGSVSEILARPKPWNKETVRGKEPFHKMKQFLSDEQNILALRSIQGR [L52E] are within error of each other in abundance fitness: -1.17 ± 0.23 for the first, -1.02 ± 0.15 for the second.

GEEMDTAEIARQVKEQLIKHNIGQRIFGHYVLGLSQGSVSEILARPKPRNKLTVRGKEPFHKMKQFLSDEQNILALRSIQGR [W49R] and GEEMDTAEIARQVKEQLIKHNIGQRIFGHYVLGLSQGSVSEILARPKPSNKLTVRGKEPFHKMKQFLSDEQNILALRSIQGR [W49S] are within error of each other in abundance fitness: -0.574 ± 0.16 for the first, -0.477 ± 0.22 for the second.

GEEMDTAEIARQVKEQLIKHNIGQRIFGHYVLGLSQGSVSEILARPKPLNKLTVRGKEPFHKMKQFLSDEQNILALRSIQGR [W49L] and GEEMDTAEIARQVKEQLIKHNIGQRIFGHYVLGLSQGSVSEILARPKPANKLTVRGKEPFHKMKQFLSDEQNILALRSIQGR [W49A] are within error of each other in abundance fitness: -0.506 ± 0.23 for the first, -0.202 ± 0.14 for the second.

GEEMDTAEIARQVKEQLIKHNIGQRIFGHYVLGLSQGSVSEILARPKPENKLTVRGKEPFHKMKQFLSDEQNILALRSIQGR [W49E] and GEEMDTAEIARQVKEQLIKHNIGQRIFGHYVLGLSQGSVSEILARPKPTNKLTVRGKEPFHKMKQFLSDEQNILALRSIQGR [W49T] are within error of each other in abundance fitness: -0.273 ± 0.26 for the first, -0.509 ± 0.31 for the second.

Going from GEEMDTAEIARQVKEQLIKHNIGQRIFGHYVLGLSQGSVSEILARPKPVNKLTVRGKEPFHKMKQFLSDEQNILALRSIQGR [W49V] to GEEMDTAEIARQVKEQLIKHNIGQRIFGHYVLGLSQGSVSEILARPKPWNLLTVRGKEPFHKMKQFLSDEQNILALRSIQGR [K51L], the abundance fitness rises from -0.529 ± 0.14 to 0.011 ± 0.058.

GEEMDTAEIARQVKEQLIKHNIGQRIFGHYVLGLSQGSVSEILARPKPWNILTVRGKEPFHKMKQFLSDEQNILALRSIQGR [K51I] and GEEMDTAEIARQVKEQLIKHNIGQRIFGHYVLGLSQGSVSEILARPKPWNYLTVRGKEPFHKMKQFLSDEQNILALRSIQGR [K51Y] are within error of each other in abundance fitness: -0.008 ± 0.12 for the first, -0.195 ± 0.073 for the second.

For GEEMDTAEIARQVKEQLIKHNIGQRIFGHYVLGLSQGSVSEILARPKPWNRLTVRGKEPFHKMKQFLSDEQNILALRSIQGR [K51R], the abundance fitness was -0.047 ± 0.044.
